According to article PMC7099064:

Columns and labels:
[1] = biological target: Pin1 (HA-Pin1, GST-Pin1) (UniProt Q13526); assay: Affi-Gel peptide pulldown from lysate
[2] = biological target: Pin1 (HA-Pin1, GST-Pin1) (UniProt Q13526); assay: co-IP of HA-Pin1 with Myc-Kv4.2; settings: reference: wild type; sites T607

Substance: Kv4.2 (Myc-Kv4.2; synthetic C-terminal peptides) (from UniProt Q9NZV8) pT602 peptide
- binding against the reference ([1]; reference: non-phospho peptide, sites T602): stronger

Substance: Kv4.2 (Myc-Kv4.2; synthetic C-terminal peptides) (from UniProt Q9NZV8) pT607 peptide
- binding against the reference ([1]; reference: non-phospho peptide, sites T607): stronger

Substance: Kv4.2 (Myc-Kv4.2; synthetic C-terminal peptides) (from UniProt Q9NZV8) T607A
- binding against the reference [2]: weaker

Substance: Kv4.2 (Myc-Kv4.2; synthetic C-terminal peptides) (from UniProt Q9NZV8) pT602, pT607 peptide
- binding against the reference ([1]; reference: non-phospho peptide, sites T602,T607): stronger
- binding against the reference ([1]; reference: pT607 peptide, sites T602): stronger
